Results published in US20190031713A1.

Molecular target: Protein A (on chromatography support) (UniProt P38507)
Test: Protein A column, linear pH gradient

Substance: IgG1 homodimer (unmodified CH3) (antibody)
- elution pH from Protein A column: 3.7 pH

Substance: IgG1 heterodimer with two IgG1 heavy chains identical but for an H435R/Y436F dipeptide modification in one CH3 domain (from UniProt P01857 1-330) (antibody)
- elution pH from Protein A column: 3.9 pH
